# Patent US20200179533A1
# Key:
# [1] = target: PiT-2-HA (human) (UniProt Q08357); test: cell-based or functional assay
# [2] = target: PiT-2 receptor (human receptor gene PiT-2, SLC20A2) (human) (UniProt Q08357); test: cell-based or functional assay
substance,measurement,setting,value
Amphotropic Envelope gene product included in the Reximmune-C1 and 2 retroviral vector,"EGFP+ cells (%) (transduction efficiency, PiT-2-HA-HCT-15)",[1],14.9%
same,"EGFP+ cells (%) (transduction efficiency, PiT-2-CHO-K1)",[2],34%
same,"EGFP+ cells (%) (transduction efficiency, PiT-2-MIA-PaCa-2)",[2],78.6%
same,"EGFP+ cells (%) (transduction efficiency, PiT-2-RKO)",[2],43.1%
